The data set deals with Escherichia coli TOP10. Put plainly: shrunken log2 fold change of peptide-encoding DNA abundance (4.5 h post-induction vs induction); higher = less antimicrobial activity (less host growth inhibition). The note with it: time post-induction: 4.5 h; library: site-saturation at positions 5, 18, 19, 20.
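Further: peptides expressed intracellularly from a pBAD plasmid library in pooled LB shake-flask culture, induced with 0.3% L-arabinose, DNA abundance read by NGS, three biological replicates, DESeq2 with apeglm shrinkage.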

For the sequence RRIRFRPPRLPRPRPRPRTAPRP, the “shrunken log2 fold change” value was found to be 0.162.

For RRIRPRPPRLPRPRPRPSVWPRP, the “shrunken log2 fold change” value is -0.0905.

Regarding RRIRARPPRLPRPRPRPHKLPRP, the “shrunken log2 fold change” value was 0.214.

For RRIRDRPPRLPRPRPRPVCMPRP, the “shrunken log2 fold change” value was 0.219.

RRIRGRPPRLPRPRPRPEYPPRP: the “shrunken log2 fold change” value was determined as 0.77.

As for RRIRYRPPRLPRPRPRPSMRPRP, the “shrunken log2 fold change” value is -0.634.

In the case of RRIRERPPRLPRPRPRPQVCPRP, the “shrunken log2 fold change” value was -0.245.

As for RRIRHRPPRLPRPRPRPVSVPRP, the “shrunken log2 fold change” value was -0.225.

Consider RRIRFRPPRLPRPRPRPRNSPRP, for which the “shrunken log2 fold change” value was found to be 0.168.

RRIRERPPRLPRPRPRPWFVPRP: the “shrunken log2 fold change” value was -0.463.

On to RRIRPRPPRLPRPRPRPASIPRP, for which the “shrunken log2 fold change” value is -0.228.

With RRIRMRPPRLPRPRPRPFYGPRP, the “shrunken log2 fold change” value was 0.0715.

RRIRGRPPRLPRPRPRPGFGPRP: the “shrunken log2 fold change” value came to 0.649.

RRIRMRPPRLPRPRPRPGYSPRP: the “shrunken log2 fold change” value is -0.185.

Turning to RRIRGRPPRLPRPRPRPCYHPRP, the “shrunken log2 fold change” value is -0.345.

Regarding RRIRARPPRLPRPRPRPTTDPRP, the “shrunken log2 fold change” value worked out at 0.745.

As for RRIRDRPPRLPRPRPRPAAWPRP, the “shrunken log2 fold change” value worked out at 1.56.

For RRIRIRPPRLPRPRPRPGVVPRP, the “shrunken log2 fold change” value is -0.47.

Consider RRIRHRPPRLPRPRPRPMRAPRP, for which the “shrunken log2 fold change” value stood at 0.686.

For the sequence RRIRARPPRLPRPRPRPTQLPRP, the “shrunken log2 fold change” value was 0.611.

For the sequence RRIRVRPPRLPRPRPRPIFDPRP, the “shrunken log2 fold change” value was -0.0222.

RRIRDRPPRLPRPRPRPKVQPRP: the “shrunken log2 fold change” value turned out to be 0.116.

For RRIRARPPRLPRPRPRPMVTPRP, the “shrunken log2 fold change” value was 0.21.

Regarding RRIRFRPPRLPRPRPRPKAVPRP, the “shrunken log2 fold change” value is -0.00146.

On to RRIRERPPRLPRPRPRPEHKPRP, for which the “shrunken log2 fold change” value is -0.0265.

In the case of RRIRFRPPRLPRPRPRPMPGPRP, the “shrunken log2 fold change” value is -0.0263.

As to RRIRVRPPRLPRPRPRPDNGPRP, the “shrunken log2 fold change” value was 0.0214.

For the sequence RRIRQRPPRLPRPRPRPPMNPRP, the “shrunken log2 fold change” value is -0.299.

With RRIRCRPPRLPRPRPRPIMIPRP, the “shrunken log2 fold change” value is -0.566.

Take RRIRPRPPRLPRPRPRPYNFPRP: the “shrunken log2 fold change” value is -0.289.

As for RRIRCRPPRLPRPRPRPITSPRP, the “shrunken log2 fold change” value amounted to 0.0215.

Consider RRIRARPPRLPRPRPRPKNIPRP, for which the “shrunken log2 fold change” value was -0.127.

With RRIRYRPPRLPRPRPRPADIPRP, the “shrunken log2 fold change” value is -0.0376.

For the sequence RRIRSRPPRLPRPRPRPHQLPRP, the “shrunken log2 fold change” value is -0.201.

Take RRIRQRPPRLPRPRPRPLHEPRP: the “shrunken log2 fold change” value is 0.149.

Regarding RRIRFRPPRLPRPRPRPKCPPRP, the “shrunken log2 fold change” value was -0.128.

Consider RRIRWRPPRLPRPRPRPMEHPRP, for which the “shrunken log2 fold change” value worked out at 0.107.

For the sequence RRIRYRPPRLPRPRPRPYDPPRP, the “shrunken log2 fold change” value was -0.325.

For the sequence RRIRRRPPRLPRPRPRPNYSPRP, the “shrunken log2 fold change” value was -0.0871.

As to RRIRTRPPRLPRPRPRPNPNPRP, the “shrunken log2 fold change” value was -0.306.

As for RRIRHRPPRLPRPRPRPDYKPRP, the “shrunken log2 fold change” value is 0.00107.

As for RRIRCRPPRLPRPRPRPIWGPRP, the “shrunken log2 fold change” value came to 0.25.

For the sequence RRIRTRPPRLPRPRPRPCSVPRP, the “shrunken log2 fold change” value came out at 0.0123.

RRIRQRPPRLPRPRPRPSHEPRP: the “shrunken log2 fold change” value is -0.0209.

In the case of RRIRMRPPRLPRPRPRPVVRPRP, the “shrunken log2 fold change” value amounted to 0.0837.

In the case of RRIRWRPPRLPRPRPRPTWIPRP, the “shrunken log2 fold change” value worked out at 0.0497.

Regarding RRIRERPPRLPRPRPRPGCEPRP, the “shrunken log2 fold change” value is -0.00695.

Regarding RRIRQRPPRLPRPRPRPRAMPRP, the “shrunken log2 fold change” value was found to be 0.0219.

Consider RRIRARPPRLPRPRPRPNTPPRP, for which the “shrunken log2 fold change” value is -0.00444.

Turning to RRIRARPPRLPRPRPRPQVDPRP, the “shrunken log2 fold change” value is 0.04.

On to RRIRYRPPRLPRPRPRPFQFPRP, for which the “shrunken log2 fold change” value amounted to 0.015.

Take RRIRFRPPRLPRPRPRPRLHPRP: the “shrunken log2 fold change” value came to 0.0811.

On to RRIRRRPPRLPRPRPRPKGGPRP, for which the “shrunken log2 fold change” value was found to be 0.183.

RRIRNRPPRLPRPRPRPRPKPRP: the “shrunken log2 fold change” value is 0.719.

For the sequence RRIRQRPPRLPRPRPRPHDAPRP, the “shrunken log2 fold change” value is -0.0149.

Take RRIRHRPPRLPRPRPRPDSKPRP: the “shrunken log2 fold change” value is -0.362.

Consider RRIRHRPPRLPRPRPRPWWMPRP, for which the “shrunken log2 fold change” value amounted to 0.0619.

On to RRIRRRPPRLPRPRPRPGKTPRP, for which the “shrunken log2 fold change” value is 0.104.

Regarding RRIRKRPPRLPRPRPRPEESPRP, the “shrunken log2 fold change” value worked out at 0.0563.

With RRIRDRPPRLPRPRPRPKDGPRP, the “shrunken log2 fold change” value is -0.0429.

For the sequence RRIRGRPPRLPRPRPRPQIRPRP, the “shrunken log2 fold change” value amounted to 0.808.

As to RRIRHRPPRLPRPRPRPVFNPRP, the “shrunken log2 fold change” value was -0.532.

On to RRIRVRPPRLPRPRPRPCKKPRP, for which the “shrunken log2 fold change” value is -0.433.

In the case of RRIRKRPPRLPRPRPRPKDRPRP, the “shrunken log2 fold change” value was found to be 0.088.

As to RRIRKRPPRLPRPRPRPYGTPRP, the “shrunken log2 fold change” value is -0.272.

For the sequence RRIRPRPPRLPRPRPRPGSIPRP, the “shrunken log2 fold change” value is -0.261.

As for RRIRYRPPRLPRPRPRPAHRPRP, the “shrunken log2 fold change” value is 0.0479.

For RRIRDRPPRLPRPRPRPERRPRP, the “shrunken log2 fold change” value worked out at 0.0137.

Take RRIRARPPRLPRPRPRPCLCPRP: the “shrunken log2 fold change” value was -0.495.

For RRIRYRPPRLPRPRPRPPENPRP, the “shrunken log2 fold change” value is -0.145.

In the case of RRIRHRPPRLPRPRPRPNHWPRP, the “shrunken log2 fold change” value is -0.594.

In the case of RRIRNRPPRLPRPRPRPMYVPRP, the “shrunken log2 fold change” value was 0.0786.

With RRIRQRPPRLPRPRPRPAVCPRP, the “shrunken log2 fold change” value is -0.197.

RRIRTRPPRLPRPRPRPTNYPRP: the “shrunken log2 fold change” value was -0.857.

As to RRIRHRPPRLPRPRPRPNQGPRP, the “shrunken log2 fold change” value is -0.479.

Consider RRIRCRPPRLPRPRPRPYWDPRP, for which the “shrunken log2 fold change” value was -1.1.

On to RRIRVRPPRLPRPRPRPCWPPRP, for which the “shrunken log2 fold change” value was found to be 0.237.

RRIRPRPPRLPRPRPRPYRCPRP: the “shrunken log2 fold change” value was -0.173.

In the case of RRIRIRPPRLPRPRPRPCHLPRP, the “shrunken log2 fold change” value is -0.281.

As to RRIRPRPPRLPRPRPRPSDGPRP, the “shrunken log2 fold change” value is -0.26.

For RRIRVRPPRLPRPRPRPIHAPRP, the “shrunken log2 fold change” value turned out to be 0.098.

Turning to RRIRSRPPRLPRPRPRPGYEPRP, the “shrunken log2 fold change” value is -0.157.

Turning to RRIRIRPPRLPRPRPRPGKQPRP, the “shrunken log2 fold change” value is -0.0943.

As to RRIRDRPPRLPRPRPRPYNPPRP, the “shrunken log2 fold change” value is -0.309.

For the sequence RRIRYRPPRLPRPRPRPWANPRP, the “shrunken log2 fold change” value was -0.176.

Consider RRIRRRPPRLPRPRPRPYAKPRP, for which the “shrunken log2 fold change” value amounted to 0.106.

RRIRARPPRLPRPRPRPWWRPRP: the “shrunken log2 fold change” value was 0.0229.

As for RRIRKRPPRLPRPRPRPAALPRP, the “shrunken log2 fold change” value was 0.831.

Turning to RRIRDRPPRLPRPRPRPCNIPRP, the “shrunken log2 fold change” value was -0.228.

RRIRNRPPRLPRPRPRPQEFPRP: the “shrunken log2 fold change” value was -0.0043.

Turning to RRIRARPPRLPRPRPRPHDEPRP, the “shrunken log2 fold change” value was -0.00385.

With RRIRQRPPRLPRPRPRPCKYPRP, the “shrunken log2 fold change” value is -0.0164.

Consider RRIRRRPPRLPRPRPRPWGSPRP, for which the “shrunken log2 fold change” value is -0.186.

For RRIRTRPPRLPRPRPRPRVCPRP, the “shrunken log2 fold change” value worked out at 0.369.

With RRIRPRPPRLPRPRPRPDKAPRP, the “shrunken log2 fold change” value is 0.00631.

In the case of RRIRWRPPRLPRPRPRPEGSPRP, the “shrunken log2 fold change” value amounted to 0.754.

For the sequence RRIRNRPPRLPRPRPRPVVAPRP, the “shrunken log2 fold change” value was -0.0949.

As for RRIRERPPRLPRPRPRPTDLPRP, the “shrunken log2 fold change” value came out at 0.15.

RRIRFRPPRLPRPRPRPVGAPRP: the “shrunken log2 fold change” value amounted to 0.472.

On to RRIRIRPPRLPRPRPRPSSRPRP, for which the “shrunken log2 fold change” value is -0.538.

Take RRIRKRPPRLPRPRPRPWTVPRP: the “shrunken log2 fold change” value was -1.8.

With RRIRTRPPRLPRPRPRPCCEPRP, the “shrunken log2 fold change” value was -0.105.

As for RRIRNRPPRLPRPRPRPYWRPRP, the “shrunken log2 fold change” value is -0.312.

As for RRIRVRPPRLPRPRPRPCRSPRP, the “shrunken log2 fold change” value came to 0.00156.

Consider RRIRLRPPRLPRPRPRPCGTPRP, for which the “shrunken log2 fold change” value is -0.0819.

As for RRIRKRPPRLPRPRPRPCSMPRP, the “shrunken log2 fold change” value is -0.00483.

For RRIRNRPPRLPRPRPRPLMQPRP, the “shrunken log2 fold change” value is -0.0301.

For RRIRTRPPRLPRPRPRPVAHPRP, the “shrunken log2 fold change” value is -0.0854.

Regarding RRIRVRPPRLPRPRPRPAHHPRP, the “shrunken log2 fold change” value was -0.011.

RRIRERPPRLPRPRPRPWNEPRP: the “shrunken log2 fold change” value was -0.351.

For RRIRHRPPRLPRPRPRPNFLPRP, the “shrunken log2 fold change” value is -0.322.

As for RRIRSRPPRLPRPRPRPEANPRP, the “shrunken log2 fold change” value was determined as 0.542.

As to RRIRFRPPRLPRPRPRPQGSPRP, the “shrunken log2 fold change” value is -0.0076.

With RRIRPRPPRLPRPRPRPPFHPRP, the “shrunken log2 fold change” value turned out to be 0.011.

With RRIRCRPPRLPRPRPRPYSTPRP, the “shrunken log2 fold change” value is -0.818.

As to RRIRARPPRLPRPRPRPTPWPRP, the “shrunken log2 fold change” value worked out at 0.563.

Take RRIRRRPPRLPRPRPRPSFFPRP: the “shrunken log2 fold change” value was 0.0112.

RRIRVRPPRLPRPRPRPPTWPRP: the “shrunken log2 fold change” value is 0.0832.

Take RRIRKRPPRLPRPRPRPHTYPRP: the “shrunken log2 fold change” value was -0.101.

Take RRIRPRPPRLPRPRPRPNFQPRP: the “shrunken log2 fold change” value was -0.00527.

Regarding RRIRARPPRLPRPRPRPNKSPRP, the “shrunken log2 fold change” value was -0.174.

Consider RRIRDRPPRLPRPRPRPNFRPRP, for which the “shrunken log2 fold change” value came to 0.267.

As to RRIRLRPPRLPRPRPRPIQQPRP, the “shrunken log2 fold change” value was -0.0102.

Take RRIRIRPPRLPRPRPRPAFYPRP: the “shrunken log2 fold change” value was -0.387.

As for RRIRPRPPRLPRPRPRPIRKPRP, the “shrunken log2 fold change” value amounted to 0.0224.

The values are drawn from the supplement of paper PMC9112550, “Optimization of the antimicrobial peptide Bac7 by deep mutational scanning” (BMC Biology, 2022).
